The DeepSol protein solubility set

Assay: soluble on expression in E. coli; label from the status in PepcDB or PDB records

| Sequence | soluble on expression in E. coli |
| --- | --- |
| MASEVQAERADVVIVGAGHGGAQAAIALRQNGFEGRVLVIGREPEIPYERPPLSKEYLAREKTFERICIRPAQFWEDKAVEMKLGAEVVSLDPAAHTVKLGDGSAIEYGKLIWATGGDPRRLSCVGADLAGVHAVRTKEDADRLMAELDAGAKNAVVIGGGYIGLEAAAVLTKFGVNVTLLEALPRVLARVAGEALSEFYQAEHRAHGVDLRTGAAMDCIEGDGTKVTGVRMQDGSVIPADIVIVGIGIVPCVGALISAGASGGNGVDVDEFCRTSLTDVYAIGDCAAHANDFADGAVIRLESVQNANDMATAAAKDICGAPVPYKATPWFWSNQYDLKLQTVGLSTGHDNAVLRGDPATRSFSVVYLKGGKVVALDCVNMVKDYVQGKKLVEARAQIAPEQLADAGVPLKEMLA | soluble |
| MLSQKLFEEISAKISETIAASPAKDIEKNVRAMMASTFSKMDLVTREEFDVQQAVLARTREKLAALESRLARLESQAFPDEAAAKVEEQSELGHS | not soluble |
| MATIHVDGKEYEVNGADNLLEACLSLGLDIPYFCWHPALGSVGACRQCAVKQYQNAEDTRGRLVMSCMTPASDGTFISIDDEEAKQFRESVVEWLMTNHPHDCPVCEEGGNCHLQDMTVMTGHSFRRYRFTKRTHRNQDLGPFISHEMNRCIACYRCVRYYKDYADGTDLGVYGAHDNVYFGRPEDGTLESEFSGNLVEICPTGVFTDKTHSERYNRKWDMQFAPSICQQCSIGCNISPGERYGELRRIENRYNGTVNHYFLCDRGRFGYGYVNLKDRPRQPVQRRGDDFITLNAEQAMQGAADILRQSKKVIGIGSPRASVESNFALRELVGEENFYTGIAHGEQERLQLALKVLREGGIYTPALREIESYDAVLVLGEDVTQTGARVALAVRQAVKGKAREMAAAQKVADWQIAAILNIGQRAKHPLFVTNVDDTRLDDIAAWTYRAPVEDQARLGFAIAHALDNSAPAVDGIEPELQNKIDVIVQALAGAKKPLIISGTNAGSIEVIQAAANVAKALKGRGADVGITMIARSVNSMGLGIMGGGSLEEALTELETGRADAVVVLENDLHRYASATRVNAALAKAPLVMVVDHQRTAIMENAHLVLSSASFAESDGTVINNEGRAQRFFQVYDPAYYDSKTVMLESWRWLHSLHSTLLSREVDWTQLDHVIDAVVAKIPELAGIKDAAPDATFRIRGQKLAREPHRYSGRTAMRANISVHEPRQPQDIDTMFTFSMEGNNQPTAHRSQVPFAWAPGWNSPQAWNKFQDEVGGKLRFGDPGVRLFETSENGLDYFTSVPARFQPQDGKWRIAPYYHLFGSDELSQRAPVFQSRMPQPYIKLNPADAAKLGVNAGTRVSFSYDGNTVTLPVEIAEGLTAGQVGLPMGMSGIAPVLAGAHLEDLKEAQQ | not soluble |
| MSLNEWALETDAEFLVYNALRETGRLLISPDAITKQKARHVMRQVIARYPLGSKHDKLWLAAVEMLHYYAPEVLQQLGIDLDAAKRDLAARILPNRFECQGPAIIRSQDLSDAQAAQACDVLDKKEQDFHQVANTGLAPVADDYNTRVEVVVFANNSSYVNYSSFLFGNTTDNGGQYLEGNPADQNNQARFVAYRYANDADLSILNLEHEYTHYLDARFNQYGSFSDNLAHGHIVWWLEGFAEYMHYKQGYQAAVKLISQGKLSLSDVFATTYSNDTNRIYRWGYLAVRFMLEKHPQDVESLLALSRTGQFDQWAQSVKLLGERYNTEFSAWLDTLQRDNEGHHHHHH | not soluble |
| MGNYMTYIVGLTGGIGSGKTTIANLFTDLGVPLVDADVVAREVVAKDSPLLSKIVEHFGAQILTEQGELNRAALRERVFNHDEDKLWLNNLLHPAIRERMKQKLAEQTAPYTLFVVPLLIENKLTALCDRILVVDVSPQTQLARSAQRDNNNFEQIQRIMNSQVSQQERLKWADDVINNDAELAQNLPHLQQKVLELHQFYLQQAENKNALEHHHHHH | soluble |
| MGSDKIHHHHHHMTVSMEQLEAFVAAAEHGSFSAAGRALRKAQSAVSTQVSNLEEDLGLELFSRQGRNPTLTAAGERLLSEARLILDRREHLIGVAASFEAHVEKRLVVAIDELYPEHALGELFAEFAVHFPHVELELLFPMMEDVSRLVLDGKADIGVMWRQEDLPAELGFHTIGWVQLKLVCGRNHPLANAVVGWEDLKRHRQIMVTVRTEGMERHRLRVAAEVWWVESHWVILQILKQGIGWALIPAHILARSPVAQDLAIPALQFDDGAHPVALELVWHKQRPSGPAATWLRKRFATTKIDMVAE | not soluble |
| MSLSFTPLHTTSEAFIEKALPWLEDRYFHIAYLNPNGYTAYPQGAFRHYLAFGSEAAIHVSDATRVFETWNEIKKGYTNEWIFVFASYDGKNSVEQLHTSKEAGIAFAAATFFIPEHVWEIQPDGILIHKGSGSSLVTEIQHAEPSTPVQQSDIFVKQVVSKESYFNAFDELQQIIAQGDAYEINYCIPFTAKGNISPAATYQRLNKKTPMPFSVYYKFNTEYILSASPERFIKKTGDTIISQPIKGTSKRGKSKAEDEMLKQQLGTSEKEQSENTMIVDLVRNDLSRTAVAGSVCVPELSGLYTFPNVHQLISTVQSTIDPACSSIDVIQQAFPMGSMTGAPKVNVMKFIDRIESMARGPFSGTVGYMDPHDNFDFNVLIRSIFYNSATQELFMEAGSAITSYAKAETEYEECLLKITPMIHILNNQEGHHHHHH | soluble |
| MDTVNNYRVLEHKAAGHDGTLTDGDGLLIFKPAFPQELEFYKAIQVRDVSRRKSSADGDAPLCSWMPTYLGVLNEGAKIEQSGDAALLKIDERLSDSTDNLDSIPVKSEKSKQYLVLENLLYGFSKPNILDIKLGKTLYDSKASLEKRERMKRVSETTTSGSLGFRICGMKIQKNPSVLNQLSLEYYEEEADSDYIFINKLYGRSRTDQNVSDAIELYFNNPHLSDARKHQLKKTFLKRLQLFYNTMLEEEVRMISSSLLFIYEGDPERWELLNDVDKLMRDDFIDDDDDDDDNDDDDDDDAEGSSEGPKDKKTTGSLSSMSLIDFAHSEITPGKGYDENVIEGVETLLDIFMKFLEHHHHHH | soluble |
| REEDPHEGKIWFHGKISKQEAYNLLMTVGQVCSFLVRPSDNTPGDYSLYFRTNENIQRFKICPTPNNQFMMGGRYYNSIGDIIDHYRKEQIVEGYYLKEPVPMQDQ | soluble |
| MSLKYVDEFRNGDYAKTLVRLIQKLTKKKINIMEICGSHTMAIFRYGIKDILPSNIRLISGPGCPVCVTSQGYIDTALELSLSREVIIATFGDMIRVPGTKTSLMKRKAEGADIKIVYSPMDALTLAENNPLKKVVFLSVGFETTTPITAITILEAKKRGVKNIFFLTSNKMVPPVMRTLVEDKELNITGFLLPGNVSAIIGKKPYEFLSSEYNVSGVVTGFEPLDILKGLKVLIDIINNNASVIVNEYKRVVRDEGNVTALRYIKEVFEVTDSTWRGIGNIEKSGYKINTEYEQFDAVKQFNINYKECDSSSECRCGDILKGKITPIECSLFKKACTPDHPVGSCMVSYEGVCAAYYKFLNTEGHHHHHH | not soluble |
| MAHHHHHHMAAVDMQVRAGELPEEPKKDLKKEPSGASKSEEEMQSGIKTYYEMKIEEYESIINKKLQNKKRLEAQRNELNTRVRELCDEIQYLLEAASYVGEIVKPMGKNKVLVKINPEGKYVVDISHSVNIAQCTPNTRVALYNDSYKLHKILPSKVDPLVSLMKVEKVPDSTYEMVGGLDQQVKEVKEVIELPVKHPEIFESLGISQPKGVLLYGPPGTGKTLLARAVAHHTDCTFIRVSGSELVQKYIGEGSRMVRELFVMAREHAPSIIFMDEIDSIGSQRIEGEHGDSEVQRTMMELLNQLDGFESTQNIKVIMCTNRIDILDEALLRPGRIDRKIEFPNPNVEARMEILKIHSRKMNLMRGIDMMKIATDMNNCSGAEVKAVCTEAGMFALRERRVHVTQEDFEMAVAKVMKQDAEKNFTLRKLWK | soluble |
| MGKARGVNNGVNESSLGYLFGSGQPSSAAAATMGTTTTTTTTTTTDGTGGRPITTTTTTVTDNKKTSAGVRGSPNNYFRSEGQNCGNFLTDRPSTKVHAAPGGGSSLDYLFGGPSPAGSGNK | not soluble |
| MSDNLKIGLQYLTPKHALTRLAGKLASAKMGWLTTAVIKWFIKQYNVNMDEAKNPDPEAYSTFNNFFVRELEDGARPINEDDSVISHPADACVSQFGPIMDGKLVQAKGHVYSAQELLGGDEALAAEFMGGEFATLYLSPSDYHRVHMPCDATLRKMIYVPGDLFSVNPLTAENVPNLFARNERVVCIFDTEFGPMAQILVGATIVGSIETTWAETVTPPTGPAVKTWHYPLSGDDMICFKKGEEMGRFKLGSTVINLFAPNSIKFDDSMENGTPTRMGTPFAHIVKLEHHHHHH | soluble |
| DHPFTSAPTFGDFGSNQQAMPLYRVEPVYPSRALKRGVEGFVTLSFTIDTTGKAVDINVVDANPKRMFEREAMQALKKWKYQPQIVDGKAIEQPGQTVTVEFKIAK | soluble |
| MHGLKRSLMIRTVCRGKATTAGADLPQSSQEIEVTTPKSENVPAKSANASTVYRPPYYRKPHQHHEPKHMLQEEFVNAGDASGAGVRVFDYYKTAEMVHSMPTIKEKIDFVSPYERPWTRAEKTWRRDWHPTLMATRKAWGIPPTPAHFDTLDYYKYLTKTRVENESLDDFYHGLRPPTADLQTSFQNTLKSMEFGDGINFSDEDTQKLFGSLIDDAMGGIAHNVSRLADHRVAYDVESEAFWVRSGFMFLYDEEEIGTRDVKRRLNNFPKFIGDDRRKLGELAFVHRDKLAAQVRSKEPSAPLHSFDSEDAKLPIFDTNYNFEETLFSPKVYNLWPDQEPLWQCPGYHADSGESHTYGILGVKSLRPLRKRIAHWMGWENENELESSEEAKQMLDDGARSQAIISMFTTLCAQAHTHGFTQYTDITRSFTSQLVLSDGINFWFAIGQLNTIAINVECDGFVNPRTNYIRIDGPYRLFDYCDKNGQYLSVQEEIDAENKVQRKIAPGLNEKVLERVTQMLMKQ | not soluble |
| SDVVEVVGSWWAQEREDIIMKYEKGHRAGLPEDKGPKPFGSYNNNIDHFGMQHETELPPLTAREVKQIRREISRKSKWVKMLGEWDTYKNSRKLIDRAYQGIPMNIRGPMWSVLLNIEEIKLKNPGRYQIMKEKGKRSSEHIQQMDLDVSGTLRRHIFFRDRYGTKQRELLYILLAYEEYNPEVGYCRDLSHIAALFLLYLPEEDAFWALVQLLASERHSLQGFHSPNGGTVQGLQDQQEHVVATSLPKTMWHQDKKDLCGQCSSLGCLIRILIDGISLGLTLRLWDVYLVEGEQAFMLITKSPLRFSRSASRRRPGVARGHVFGTGSLMPGPGMMTLCSSILGPL | soluble |
| MYIGIDLGTSGVKVILLNEQGEVVASQTEKLTVSRPHPLWSEQDPEQWWQATDRAMKALGDQHSLQDVKALGIAGQMHGATLLDAQQRVLRPAILWNDGRCAQECTLLEARVPQSRVITGNLMMPGFTAPKLLWVQRHEPEIFRQIDKVLLPKDYLRLRMTGEFASDMSDAAGTMWLDVAKRDWSDVMLQACDLSRDQMPALYEGSEITGALLPEVAKAWGMATVPVVAGGGDNAAGAVGVGMVDANQAMLSLGTSGVYFAVSEGFLSKPESAVHSFCHALPQRWHLMSVMLSAASCLDWAAKLTGLCNVPALIAAAQQADESAEPVWFLPYLSGERTPHNNPQAKGVFFGLTHQHGPNELARAVLEGVGYALADGMDVVHACGIKPQSVTLIGGGARSEYWRQMLADISGQQLDYRTGGDVGPALGAARLAQIAANPEKSLIELLPQLPLEQSHLPDAQRYAAYQPRRETFRRLYQQLLPLMA | not soluble |
